In a protein production outcome set (Wang et al. 2014):

Test: label from the status in PepcDB records
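Also: failed if final PepcDB status was selected cloned or expressed and not failed if soluble or beyond.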

Sequence | protein production
MDSGCWLFGGEFEDSVFEERPERRSGPPASYCAKLCEPQWFYEETESSDDVEVLTLKKFKGDLAYRRQEYQKALQEYSSISEKLSSTNFAMKRDVQEGQARCLAHLGRHMEALEIAANLENKATNTDHLTTVLYLQLAICSSLQNLEKTIFCLQKLISLHPFNPWNWGKLAEAYLNLGPALSAALASSQKQHSFTSSDKTIKSFFPHSGKDCLLCFPETLPESSLFSVEANSSNSQKNEKALTNIQNCMAEKRETVLIETQLKACASFIRTRLLLQFTQPQQTSFALERNLRTQQEIEDKMKGFSFKEDTLLLIAEVMGEDIPEKIKDEVHPEVKCVGSVALTALVTVSSEEFEDKWFRKIKDHFCPFENQFHTEIQILA | failed
MSALRTIGALTAREMLKFVRDRSRVLGALAQPLALWLLLGLGFQNTFQPPQGSVGGSYGAFLLPGILALVLLFTAIFSTISIVEERTSGFLQAVLVAPTPRTALVFGTTLGGTLLATVQALLFLGALPLIDLSPGVAGVGMIVAVCLLTGLAFTALGFAIAWRMETTRGFHAVMNLFLLPLWFLSGAMFPVDGAAPVLQVVMWGNPVSYAVSGLRHGFHGFAGTPAALAGPGVCLAVTGAFAVLMTGLAVWQVRRPFFQT | failed
MKQEETLTKVKVAEVTHSIFYAPLYVAESKGFFKEEGLDVDVNTTWGGDKTMTSLLSNGSDIALVGSETSIYVEAQGAKDPVINFAQLTQTDGTFLVAREDVEHFDWDQLKGKTFLGQRKGGMPQMVGEYVLNKHKIDPHKDIDLIQNIDFANIANAFASGTGEYVQLFEPQLLSLRKKASAISWLHSEKNQERFLIRLLWRNKAILEHHHHHH | failed
MKRPRGKPLFKPVKERNPVAVGVAGLLVLTLVALLVYNVDRLPFGGGTTYSADFSESAGLDEGDEVRIAGVKVGQVTGVALDGAKVKVSFEVEDAWIGDRTTAAIAIKTVLGDKYLALDPLGSGRQDPGARIPLARTTSPYDVTQAFQDLSGTVDDIDTGRLAESFETISDTFKDSPPHVRKAATGLSDLSKSISKRDAKLSELLKGSARFTKTLENNKSSFETLIEDGGPLLGELRDRRTAINALLKGSQDLGTELGGLVKDNEKQLGPTLKALGRVTSVLEKNNTRLGETLALVGPYYRLVGNTLGNGRWFDSYLCGVVPRDYLPETSQPSTGCLPPKQPAAAQGSGARLEHHHHHH | failed
MTSAAEITAAVRQLYNTYPFPPEPLLDEPPPGYNWRWSWPAAYSFCTGRYPSQLDVAILDAGCGTGVGTEYLAHLNPQAKITALDLSEAALAIACERCRRSGATNVQFHHLSLEEVAQLGQTFQMINCVGVLHHLPEPQRGIQALADVLAPGGIVHIFVYGEYGRWEIKLMQQAIALLQGSDRHNYREGVAIGRQLFAALPENNRLKKREQERWSLENQRDECFADMYVHPQEIDYTIASLFELIRASGLEFIGFSNPQVWQLERLLGSQPELLQRAQQLDPIQQYQLIECLDPEAMTHFEFFLAKPPLPRHDWAADRELLAAIPWRHPCIDGWPGACVFNCHYEVIHLNQAEQEFLNAASGKATVAELLAQQPDFNLAEVRSLLARHLLLLGVKELEHHHHHH | failed
MSTQDERQINTEYAVSLLEQLKLFYEQQLFTDIVLIVEGTEFPCHKMVLATCSSYFRAMFMSGLSESKQTHVHLRNVDAATLQIIITYAYTGNLAMNDSTVEQLYETACFLQVEDVLQRCREYLIKKINAENCVRLLSFADLFSCEELKQSAKRMVEHKFTAVYHQVAFMQLSHDLLIDIFSSDNLNVEKEETVREAAMLWLEYNTESRSQYLSSVLSQIRIDALSEVTQRAWFQGLPPNDKSVVVQGLYKSMPKFFKPRLGMTKEEMMIFIEASSENPCSLYSSVCYSPQAEKVYKLCSPPADLHKVGTVVTPDNDIYIAGGQVPLEKHKNKSQ | failed
MNKRFFPRIDLPLLMAIIPIMLLSSLTLWSASGFDESMLFKHLARCALTLVCILVMSSIPAASYQRSAPYLYFVAVSLLLAVALFGDSTNGSQRWLDIGFFRFQPSELIKLSIPIMIAWMLHLEGGRPDFRKIALCLMITLVPAGLIALQPDLDGAIFTVIYALFVLFFAGMSWKIIGGFVVSVLTLAPILWFFVMEAYQKSRVTQFLHPESDPLGSGYQIIQSLIAIGSGGMKGKGWMNATQGTLGFIPESHTDFIFSTYAEEWGFIGCVVLLALYLFITARVMLLACQSEHFFSRLVSGTLAMSFFLYAFINTGMVSGLLPVMGSPLPFFSYGGTAMLTQGICFGVIMSLCYSKYRNT | failed
MLTFFIGDLLPIIVIMLLGYFSGRRETFSEDQARAFNKLVLNYALPAALFVSITRANREMIFADTRLTLVSLVVIVGCFFFSWFGCYKFFKRTHAEAAVCALIAGSPTIGFLGFAVLDPIYGDSVSTGLVVAIISIIVNAITIPIGLYLLNPSSGADGKKNSNLSALISAAKEPVVWAPVLATILVLVGVKIPAAWDPTFNLIAKANSGVAVFAAGLTLAAHKFEFSAEIAYNTFLKLILMPLALLLVGMACHLNSEHLQMMVLAGALPPAFSGIIIASRFNVYTRTGTASLAVSVLGFVVTAPLWIYVSRLVS | failed
MPSLTPRCIIVRHGQTEWSKSGQYTGLTDLPLTPYGEGQMLRTGESVFRNNQFLNPDNITYIFTSPRLRARQTVDLVLKPLSDEQRAKIRVVVDDDLREWEYGDYEGMLTREIIELRKSRGLDKERPWNIWRDGCENGETTQQIGLRLSRAIARIQNLHRKHQSEGRASDIMVFAHGHALRYFAAIWFGLGVQKKCETIEEIQNVKSYDDDTVPYVKLESYRHLVDNPCFLLDAGGIGVLSYAHHNIDEPALELAGPFVSPPEEESQHGDV | not failed
MKPICIIPARSGSKGLPDKNMLFLSGKPMIFHTIDAAIESGMFDKKDIFVSTDSELYREICLERGISVVMRKPELSTDQATSYDMLKDFLSDYEDNQEFVLLQVTSPLRKSWHIKEAMEYYSSHDVDNVVSFSEVEKHPSLFTTLSDEGYAIDMVGADKGYRRQDLQPLYYPNGAIFISNKETYLREKSFFTSRTYAYQMAKEFSLDVDTRDDFIHVIGHLFFDYAIREKENKVFYKEGYSRLFNREASKIILGDSKTISTSLESYHNYSQGGVTLATMLENLPNFLTANVTEAFVSIGVNDLITGYSVEEIFSNFQKLYSLLAENKIKMRLTTIAYTLFRETVNNADIEKINQWLTEFCYQNQIPLLDINRFLSKDGNLNYHLTSDGLHFTQEANDLLQSQYQLFVDEVKTLLEHHHHHH | not failed
MIKQVNPHFKEFLFDWNQKFQFLVGGYGSSKSYHVALKIVLKLLREKRTALVIREVYDTHRDSTFSLFDELVSDLKLDHIVRCVSSPMQIRFSNGSRIIFKGMDKPAKLKSINNISLIWIEECSEVKYEGFKELLGRLRHPTLPLHMILSTNPVGEDNWTFKHFFKDDREKRFVLDDKELYEKRIIVSNDTYYHHSTADDNLFLPESYVQQLEELKEYDPDLYRIARKGHFGVNGIRVLPQFEERPHEEVMTAISNINRPLKRVGMDFGFVESYNAVVRVAVDHEKKYLYIYWEYYKNGLTDDKTAEELKEFAETKELIKADSAEPKTIRYFQQHGFNMVGARKYQGSRLQYTKKIKRFRKIICSDRCENTIYELKPLAYATDKLGNIIEDEFTIDPHTLSAIWYALDDYEVTDLKEESKGRPQRSRPGRR | not failed
MGLAASEALQGSEQEINSAFSNQITPVISGDYIVWQDERDGNWDIYMYDMSAGRTETSLFNGPKDEIEPAISGSRVVLADNRRGNYDIYMYDISTKKEVQVTSDKSEQKEPAISEDIIVWTDRRNQNTDIYMYDLTTKEETRITDDKADQSQPAVWGNIIVWKDTRNGNEDIYMYDISAGKESPVVMDSAAQTNPVIEGDYIVWEDRRAGNLDIYMYEISTGKEKPVCTDPSPQKTPAISDGRIVWADGRIKGTNIFIYDIATGQEKTVSTASEYESNPSIDGNRIVWQDKRKGAMDIFMFTEDASETESTAGEKTEAETGSKAPLGIYPVSAGVIAAYLMINSGKKGKRKTLEHHHHHH | failed
MSRRKKAYQGRKIGSQLLATLESEARKKVGYLQVKTVAEGSNKDYDRTNDFYRGLGFKKLEIFPQLWNPQNPCQILIKKLE | failed
MRVFPVTLGPLQENAYLVETGEGPVLIDPGDEPEKLLALFQTTGLIPLAILLTHAHFDHVGAVAPLVEALDLPVYLHPLDLPLYEGADLAARAWGLAIPKPPLPVRPLEEGMRLFGFQVLHLPGHSPGHVAFYDPEGAQVFSGDLLFRGSVGRYDLPGADPKALFASLKRLLSLPPETRVHPGHGPGTTLGLEARTNPFLTGLEWEA | not failed
MIETPSLVDQYCHGVLRTELGLGTFEAQLARTEGPPAPGTTLFDTQTGFAVRRWCPPLLGLEPHCPPARYLARRRELGVMEADRRLLRGSGITTYLVDAGLPGDLTGPTEMATAADADTREIVRLELLAEQVADTSGTVESFLANLAEAVHGAAVNAVAFTSVAGVRHGLALAPEPPGPGEVRGAAARWLTGREVGGELSDPVLLRHLLWIAVASGLPLQLHAGLGEPGLRIDRTDPVLLTDFVRTTAGLGTDLVLLHGYPYHRHAAHLAGVFPHVYADSGAALVRTGARAATVLAEILELAPFGKILFSSGAQGLPELHVVAARLFREALGRVLGTWVAEGAWSPGDAQRVAAMIASGNAARVYGLE | failed
MNNQEKNMLGFNQDEYLTSAREIIAARQKAEQVADEIYQAGFSSLFFASVGGSLAPMMAINEFAKELTTLPVYVEQAAELIHKGNKRLNKDSVVITLSKSGDTKESVAIAEWCKAQGIRVVAITKNADSPLAQAATWHIPMRHKNGVEYEYMLLYWLFFRVLSRNNEFASYDRFASQLEILPANLLKAKQKFDPQADAIASRYHNSDYMMWVGGAEMWGEVYLFSMCILEEMQWKRTRPVSSAEFFHGALELLEKDVPLILVKGEGKCRALDERVERFASKITDNLVVIDPKAYALDGIDDEFRWIMAPCVVSTLLVDRLAAHFEKYTGHSLDIRRYYRQFDY | not failed
TLPGRISRERRGHLLLLGLDRVAKRNAFDLPMLDDLVAALGEYEADDQLRCALLFAHGEHFTAGLDLANVGETFRQGWKLPEGAVDPWGTFGGRRPSKPLVVAVQGYCYTIGIELMLAADINLCASNARFAQLEVQRGILPFGGATLRMHQVAGWGNAMRWLLTGDEFDAHEAYRLGLVQEVTAPEDLLDHAIALAERVAAQAPLGVRATLGSARQALLEGEAVAAAALPEAARRLLDSEDAKEGLRALQERRPGRFE | failed
MSLFIYEVLIRLFMTFILSLLLTPLVKLLAFRIGAYDAPGERRINTKNMPTAGGLAIYIAFASSCLLIFRSIIPQDYIWPIILAGGMVVLTGLIDDIKEITPMKKTIGILLAALVIYFVAGIRIDFVTLPVVGMIDLRWFSLPLTLLWILAITNAVNLIDGLDGLASGVSIIGLTTIGITGYFFLHAKTVYIPIVIFILVASIAGFFPYNFYPAKIFLGDTGALFLGFMIAVMSLQGLKNATFITVITPMVILGVPITDTVYAIIRRLLNKKPISSADKMHLHHRLLSLGFTHKGAVMTIYALALVFSFVSLLFSYSSTVASILLIVFCLIGLELFIELIGLVGEGHQPLMYLLRILGNREYRQEQMKKRLGKHSKRK | failed
MSDVMTLKKSDIYNSDGSVKHTAFIHDKKTGKANTLYLKPVQQDLLQYHDWLVQENINSEWLFPSASHHNRHITEKQFYKVMARVGDLLSINYHYLGTHTMRKTGAYRVYTQSNYNIGLVMHLLNHSSEVMTLTYLGLDHASRETMLDQIDFG | failed
